From publication PMC11467371, “Structure‐based design of antibodies targeting the EBNA1 DNA‐binding domain to block Epstein–Barr virus latent infection and tumor growth”

B1: DNA01 (dsDNA)
DNA 1: GGGTAGCATATGCTACCC
DNA 2: GGGTAGCATATGCTACCC
B2: DNA02 (dsDNA)
DNA 1: GGGTAACCACTGTTACCC
DNA 2: GGGTAACAGTGGTTACCC

Target: EBNA1 DBD (Epstein-Barr virus (strain B95.8), UniProt P03211 461-607)
Assay: fluorescence polarization; EC50; 1 mM MgCl2; FP: 200 mM NaCl, 20 mM Tris-HCl pH 7.5, 1 mM MgCl2, 0.01% CHAPS; 20 nM FAM probe stock mixed 1:1 with 0.31-20 µM protein, 20 min; temperature not stated
Conditions: protein: recombinant, tags: N-terminal 6xHis-SUMO, removed by ULP1, chain copies: 2, label: 5'-FAM, called 18-bp

Sequence of EBNA1 DBD (P03211 461-607): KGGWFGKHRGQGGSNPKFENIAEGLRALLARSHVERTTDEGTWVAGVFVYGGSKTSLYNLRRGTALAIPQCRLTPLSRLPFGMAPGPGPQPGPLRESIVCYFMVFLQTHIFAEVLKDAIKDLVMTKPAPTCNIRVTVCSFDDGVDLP

Binder	apparent K (half saturation) (blunt, one self-complementary strand printed, 2 copies)	apparent K (half saturation) (only the FAM strand is printed, complement implied)
B1	2130 nM	
B2		1540 nM
